The target in data set [1] is MKK7 kinase domain (Homo sapiens) (UniProt O14733). The experiment in a line: SPR. The conditions noted are these: cited from earlier work.
The target in data set [2] is T1, kinase domain of human MKK7 (mitogen-activated protein kinase kinase 7) (human, UniProt O14733 120-380).
T1 construct: MKK7, human, kinase domain; also called MKK7_KD; source: recombinant, obtained as His-fusion protein as previously reported
T1 sequence (looked up): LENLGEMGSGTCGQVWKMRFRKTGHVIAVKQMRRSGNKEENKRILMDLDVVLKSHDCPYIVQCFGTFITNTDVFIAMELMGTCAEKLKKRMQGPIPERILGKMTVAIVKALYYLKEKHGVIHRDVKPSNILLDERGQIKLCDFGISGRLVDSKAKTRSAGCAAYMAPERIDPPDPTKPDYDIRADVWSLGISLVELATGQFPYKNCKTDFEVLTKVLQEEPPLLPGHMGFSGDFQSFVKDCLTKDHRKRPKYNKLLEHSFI
The experiment in a line: BLI; biotinylated GADD45 proteins immobilised on super streptavidin (SSA) biosensors (2.5 nm), Octet RED96; MKK7_KD in solution at 9-300 nM; 0.01 M HEPES pH 7.4, 0.15 M NaCl, 3 mM EDTA, 0.005% Surfactant P20, 2 mM DTT; 1:1 binding model. The conditions noted are these: both partners purified. In general terms: In BLI a coated tip is dipped into the sample, and binding shifts an interference pattern.

Data set [3] deals with the molecule itself. The experiment in a line: SEC-MALS; SEC-LS, Superdex S200 10/30 with miniDAWN TREOS; 0.5-1.0 mg loaded; 20 mM Tris-HCl pH 7.5, 100 mM NaCl, 5 mM DTT, 5% glycerol (the results and the legend name only 5 mM DTT in 20 mM Tris-HCl pH 7.5); oligomeric state of the native protein.

Data on three molecules can be found in PMC8509203, “Members of the GADD45 Protein Family Show Distinct Propensities to form Toxic Amyloid-Like Aggregates in Physiological Conditions” (International Journal of Molecular Sciences, 2021).

Turning to GADD45β (from UniProt O75293), the equilibrium dissociation constant (Kd) in data set [1] was 6 nM.

B1: GADD45β (growth arrest and DNA damage-inducible 45 beta) (natural protein, human, UniProt O75293 1-160, looked up)
chain: MTLEELVACDNAAQKMQTVTAAVEELLVAAQRQDRLTVGVYESAKLMNVDPDSVVLCLLAIDEEEEDDIALQIHFTLIQSFCCDNDINIVRVSGMQRLAQLLGEPAETQGTTEARDLHCLLVTNPHTDAWKSHGLVEVASYCEESRGNNQWVPYISLQER
modifications: biotin (EZ-Link Sulfo-NHS-LC-Biotinylation Kit), in the BLI experiment only
notes: GADD45β, human; cloned into pET-28a+ as previously reported; Monomeric by SEC-LS; The same construct was used without biotin in SEC-LS and biotinylated in BLI; also called Human GADD45β; source: E. coli BL21(DE3), purified (Ni2+-NTA, Superdex 200 SEC)
B1 gave a Kd in data set [2] of 2 nM.

B2: GADD45γ (growth arrest and DNA damage-inducible 45 gamma) (natural protein, human, UniProt O95257 1-159, looked up)
chain: MTLEEVRGQDTVPESTARMQGAGKALHELLLSAQRQGCLTAGVYESAKVLNVDPDNVTFCVLAAGEEDEGDIALQIHFTLIQAFCCENDIDIVRVGDVQRLAAIVGAGEEAGAPGDLHCILISNPNEDAWKDPALEKLSLFCEESRSVNDWVPSITLPE
modifications: biotin (EZ-Link Sulfo-NHS-LC-Biotinylation Kit), in the BLI experiment only
notes: GADD45γ, human; gene purchased from Sigma Aldrich, cloned into pETM-13 with BamHI and XhoI; Dimeric by SEC-LS; The same construct was used without biotin in SEC-LS and biotinylated in BLI; source: E. coli BL21(DE3), purified (Ni2+-NTA, Superdex 200 SEC)
Consider B2, for which the “stoichiometry N” value in data set [3] was 2.

Broadly, the Kd is the concentration at which binding is half-saturated. The term stoichiometry N denotes the number of molecules, sites or subunits per partner or assembly.
